Reference: patent publication US7629437

Target: T1, Ac-Leu-Thr-Phe-Lys-ACC
T1 chain: LTFK

B1: Cruzain (protein)
chain: APAAVDWRARGAVTAVKDQGQCGSCWAFSAIGNVECQWFLAGHPLTNLSEQMLVSCDKTDSGCSGGLMNNAFEWIVQENNGAVYTEDSYPYASGEGISPPCTTSGHTVGATITGHVELPQDEAQIAAWLAVNGPVAVAVDASSWMTYTGGVMTSCVSEQLDHGVLLVGYNDSAAVPYWIIKNSWTTQWGEEGYIRIAKGSNQCLVKEEASSAVVG
cleavage products (HPLC and MALDI of the digest): Product fragments corresponding to cleavage between Thr-Phe were observed (data not shown)
